Data reported in patent publication US20050227220A1, “Compositions and Methods for Evaluating and Designing Nuclear Receptor Ligands that Modulate Co-Regulator Affinity” (priority 2002, published 2005).
Primed or numbered codes have the meaning given here. No end group written: not given here. *: point of attachment. fluorescein″ = fluorescein label attached to the peptide N-terminus; Biotin = O=C1N[C@H]2[C@H](CS[C@H]2CCCCC(=O)*)N1

T1: RARα ligand binding domain (amino acids 146-432) (UniProt P10276 146-432)
T1 construct: range 146-432; not shown: His-tag
T1 sequence (looked up): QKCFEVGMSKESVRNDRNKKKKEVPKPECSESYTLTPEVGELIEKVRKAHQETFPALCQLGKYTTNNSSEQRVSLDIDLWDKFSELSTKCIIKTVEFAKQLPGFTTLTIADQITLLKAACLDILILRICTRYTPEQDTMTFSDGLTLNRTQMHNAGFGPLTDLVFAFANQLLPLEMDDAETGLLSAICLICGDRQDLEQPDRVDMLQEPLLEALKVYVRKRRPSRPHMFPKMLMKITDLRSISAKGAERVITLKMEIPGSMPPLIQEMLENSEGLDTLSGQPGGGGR

T2: human PPARδ ligand binding domain (amino acids 139-441) (human, UniProt Q03181 139-441, Biotinylated (site not stated) in the FRET assays; unlabelled in fluorescence polarization and SPR.)
T2 construct: placed at the N-terminus here; Biotinylated for FRET; also called PPARδ LBD
T2 sequence: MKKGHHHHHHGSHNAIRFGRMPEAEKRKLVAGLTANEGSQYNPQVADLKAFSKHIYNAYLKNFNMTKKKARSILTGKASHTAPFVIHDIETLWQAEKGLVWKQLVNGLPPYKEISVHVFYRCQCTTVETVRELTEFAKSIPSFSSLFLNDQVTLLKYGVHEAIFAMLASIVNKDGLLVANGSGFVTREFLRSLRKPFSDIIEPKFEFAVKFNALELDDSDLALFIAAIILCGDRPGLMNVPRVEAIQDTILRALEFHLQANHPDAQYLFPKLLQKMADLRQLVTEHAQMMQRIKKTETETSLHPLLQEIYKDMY

T3: human PPARγ ligand binding domain (amino acids 206-477) (human, UniProt P37231-2 206-477)
T3 construct: range 206-477; placed at the N-terminus here; Biotinylated for FRET; also called PPARγ LBD
T3 sequence: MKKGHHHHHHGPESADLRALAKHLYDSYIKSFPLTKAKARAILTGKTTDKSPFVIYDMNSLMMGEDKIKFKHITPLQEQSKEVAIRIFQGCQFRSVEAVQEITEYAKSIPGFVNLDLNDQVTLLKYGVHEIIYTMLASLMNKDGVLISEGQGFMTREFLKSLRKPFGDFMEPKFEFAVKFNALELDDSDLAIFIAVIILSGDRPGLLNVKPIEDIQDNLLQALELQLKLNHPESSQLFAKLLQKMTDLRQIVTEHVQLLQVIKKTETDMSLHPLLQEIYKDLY

T4: human PPARα ligand binding domain (amino acids 192-468) (human, UniProt Q07869 192-468)
T4 construct: range 192-468; placed at the N-terminus here; Biotinylated for FRET; also called PPARα LBD
T4 sequence: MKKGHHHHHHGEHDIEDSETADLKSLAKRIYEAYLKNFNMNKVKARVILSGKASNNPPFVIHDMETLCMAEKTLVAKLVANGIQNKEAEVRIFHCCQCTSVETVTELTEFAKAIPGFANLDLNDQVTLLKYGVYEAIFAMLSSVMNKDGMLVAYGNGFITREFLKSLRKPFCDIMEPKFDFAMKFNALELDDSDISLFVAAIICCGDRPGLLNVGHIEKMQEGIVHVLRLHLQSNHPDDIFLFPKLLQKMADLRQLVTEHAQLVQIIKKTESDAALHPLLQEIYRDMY

T5: RXRα ligand binding domain (amino acids 225-462) (UniProt P19793 225-462)
T5 construct: range 225-462; Biotinylated for FRET; also called RXRα LBD; not shown: His-tag
T5 sequence (looked up): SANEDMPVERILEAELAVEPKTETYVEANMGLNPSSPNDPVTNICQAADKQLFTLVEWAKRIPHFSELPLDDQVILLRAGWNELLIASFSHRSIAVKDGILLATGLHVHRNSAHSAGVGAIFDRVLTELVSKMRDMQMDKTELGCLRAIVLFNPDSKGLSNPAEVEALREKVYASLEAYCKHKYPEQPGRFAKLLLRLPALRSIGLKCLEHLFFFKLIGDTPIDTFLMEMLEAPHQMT

T6: Fluoroscein-NCOR ID-C peptide (NCoR amino acids 2251-2275) (N-terminal fluorescein)
T6 construct: also called NCOR peptide; NCoR 2251-2275
T6 peptide: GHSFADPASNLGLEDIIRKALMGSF

T7: biotin-NCOR ID-C peptide (NCoR amino acids 2251-2275) (N-terminal biotin)
T7 construct: also called NCOR-derived co-repressor peptide
T7 peptide: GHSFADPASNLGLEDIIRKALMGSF

B1: Fluoroscein-SMRT ID-C peptide (peptide)
peptide: {fluorescein″}-TNMGLEAIIFKALMGKYDQWEE
B2: TRβ ligand binding domain (receptor, UniProt P10828 202-461, looked up)
chain: EELQKSIGHKPEPTDEEWELIKTVTEAHVATNAQGSHWKQKRKFLPEDIGQAPIVNAPEGGKVDLEAFSHFTKIITPAITRVVDFAKKLPMFCELPCEDQIILLKGCCMEIMSLRAAVRYDPESETLTLNGEMAVTRGQLKNGGLGVVSDAIFDLGMSLSSFNLDDTEVALLQAVLLMSSDRPGLACVERIEKYQDSFLLAFEHYINYRKHHVTHFWPKLLMKVTDLRMIGACHASRFLHMKVECPTELFPPLFLEVFED
notes: also called Thyroid Receptor LBD; TRβ LBD
B3: VP16-human PPARγ2 (full length) (other)
chain: LSTAPPTDVSLGDELHLDGEDVAMAHADALDDFDLDMLGDGDSPGPGFTPHDSAPYGALDMADFEFEQMFTDALGIDEYGGMGETLGDSPIDPESDSFTDTLSANISQEMTMVDTEMPFWPTNFGISSVDLSVMEDHSHSFDIKPFTTVDFSSISTPHYEDIPFTRTDPVVADYKYDLKLQEYQSAIKVEPASPPYYSEKTQLYNKPHEEPSNSLMAIECRVCGDKASGFHYGVHACEGCKGFFRRTIRLKLIYDRCDLNCRIHKKSRNKCQYCRFQKCLAVGMSHNAIRFGRMPQAEKEKLLAEISSDIDQLNPESADLRALAKHLYDSYIKSFPLTKAKARAILTGKTTDKSPFVIYDMNSLMMGEDKIKFKHITPLQEQSKEVAIRIFQGCQFRSVEAVQEITEYAKSIPGFVNLDLNDQVTLLKYGVHEIIYTMLASLMNKDGVLISEGQGFMTREFLKSLRKPFGDFMEPKFEFAVKFNALELDDSDLAIFIAVIILSGDRPGLLNVKPIEDIQDNLLQALELQLKLNHPESSQLFAKLLQKMTDLRQIVTEHVQLLQVIKKTETDMSLHPLLQEIYKDLY
B4: LXR alpha LBD (receptor, not shown: small tags and cut ends)
chain: EEEQAHATSLPPRASSPPQILPQLSPEQLGMIEKLVAAQQQCNRRSFSDRLRVTPWPMAPDPHSREARQQRFAHFTELAIVSVQEIVDFAKQLPGFLQLSREDQIALLKTSAIEVMLLETSRRYNPGSESITFLKDFSYNREDFAKAGLQVEFINPIFEFSRAMNELQLNDAEFALLIAISIFSADRPNVQDQLQVERLQHTYVEALHAYVSIHHPHDRLMFPRMLMKLVSLRTLSSVHSEQVFALRLQDKKLPPLLSEIWDVHE
modifications: Biotinylated and bound to streptavidin-APC in the assay; His-tag not written
notes: also called LXRα
B5: SRC-1 peptide (amino acids 676-700) (peptide)
peptide: Biotin-CPSSHSSLTERHKILHRLLQEGSPS
modifications: also: fluorescent label in polarization assay, not given here
notes: also called SRC-1 (LCD2) 676-700; SRC peptide
B6: GAL4-NcoR (2239-2300) (other)
chain: MKLLSSIEQACDICRLKKLKCSKEKPKCAKCLKNNWECRYSPKTKRSPLTRAHLTEVESRLERLEQLFLLIFPREDLDMILKMDSLQDIKALLTGLFVQDNVNKDAVTDRLASVETDMPLTLRQHRISATSSSEESSNKGQRQLTVSPAVTTSGSVSSRGHSFADPASNLGLEDIIRKALMGSFDDKVEDHGVVMSQPMGVVPGTANTS
notes: range 1-147;range 2239-2300; also called GAL4-NCoR 2239 to 2300

Columns and labels:
[1] = molecular target: Fluoroscein-SMRT ID-C peptide; experiment: fluorescence polarization, 10 nM fluorescein peptide, LBD titrated, no ligand
[2] = molecular target: Fluoroscein-NCOR ID-C peptide (NCoR amino acids 2251-2275); experiment: as above
[3] = molecular target: Fluoroscein-SMRT ID-C peptide; experiment: fluorescence polarization
[4] = molecular target: Fluoroscein-NCOR ID-C peptide (NCoR amino acids 2251-2275); experiment: fluorescence polarization
[5] = molecular target: T1, RARα ligand binding domain (amino acids …); experiment: fluorescence polarization, 10 nM fluorescein peptide, LBD titrated, no ligand
[6] = molecular target: T2, human PPARδ ligand binding domain …; experiment: as above
[7] = molecular target: B2; experiment: as above
[8] = molecular target: T3, human PPARγ ligand binding domain …; experiment: as above
[9] = molecular target: T4, human PPARα ligand binding domain …; experiment: as above
[10] = molecular target: T5, RXRα ligand binding domain (amino acids …); experiment: as above
[11] = molecular target: T8, ERβ ligand binding domain (amino acids 257-530) (UniProt Q92731 257-530); experiment: as above
T8 construct: range 257-530; not shown: His-tag

[12] = molecular target: T6, Fluoroscein-NCOR ID-C peptide (NCoR …); experiment: fluorescence polarization, no ligand
[13] = molecular target: T6, Fluoroscein-NCOR ID-C peptide (NCoR …); experiment: fluorescence polarization, with agonist ligand T3
[14] = molecular target: B5; experiment: fluorescence polarization, with agonist ligand T3
GAL4-NcoR (2239-2300) = molecular target: B6; experiment: cell-based or functional assay
GAL4-CBP (1-115) = GAL4-CBP (1-115) (UniProt P04386 1-147; P45481 1-115); experiment: cell-based or functional assay
[15] = molecular target: T7, biotin-NCOR ID-C peptide (NCoR amino …); experiment: time-resolved FRET (ratio 665 nm/620 nm), biotinylated NCOR (2251-2275) peptide on europium streptavidin with APC-labeled LXRα LBD, test compound at 2 µM; normalized to % inhibition or activation
[16] = molecular target: B2; experiment: fluorescence polarization, apparent affinity, no ligand
[17] = molecular target: B3; experiment: mammalian two-hybrid in CV-1 cells
[18] = molecular target: T9, VP16-human PPARα (full length) (human, UniProt P06492 410-490; Q07869 1-468); experiment: mammalian two-hybrid in CV-1 cells
T9 construct: also called VP16 full length PPARα

T8 sequence (Q92731 257-530 limits assumed): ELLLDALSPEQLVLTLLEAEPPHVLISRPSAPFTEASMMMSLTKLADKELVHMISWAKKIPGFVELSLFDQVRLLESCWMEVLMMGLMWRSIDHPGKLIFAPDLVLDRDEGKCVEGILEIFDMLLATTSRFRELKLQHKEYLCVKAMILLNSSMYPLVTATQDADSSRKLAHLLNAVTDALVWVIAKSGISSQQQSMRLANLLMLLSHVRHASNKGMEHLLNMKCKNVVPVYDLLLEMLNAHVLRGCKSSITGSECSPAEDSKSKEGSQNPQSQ

For “RXRαΔAF2 ligand binding domain (amino acids 225-446) (from UniProt P19793 225-446) (receptor)”, the Kd [1] was 0.25 µM, the Kd [2] was 0.39 µM and the fold greater affinity against RXRα ligand binding domain [3] was 100 fold. The fold greater affinity against RXRα ligand binding domain [4] was 100 fold.

In the case of B1, the Kd [5] is reported as 2.1 µM, the Kd [6] is reported as 7.7 µM and the Kd [7] is reported as 0.74 µM. The Kd [8] was 1.8 µM, the Kd [9] was 6.1 µM and the Kd [10] was 20 µM. It also gave a Kd [11] of 30 µM.

With B2 the “fold greater affinity against the coactivator peptide (SRC-1)” value [12] was 10 fold, the “fold decrease in affinity with T3 against no ligand” value [13] was 9 fold and the “fold greater affinity against the co-repressor peptide (NCoR ID-C)” value [14] was 48 fold. For the same molecule, the “fold increase in affinity with T3 against no ligand” value [14] was 50 fold.

In the case of B3, the “mammalian two-hybrid reporter, fold dissociation with GW1929 and GW7845” value (GAL4-NcoR (2239-2300)) is reported as ~3 fold and the “mammalian two-hybrid reporter, fold association with GW1929 and GW7845” value (GAL4-CBP (1-115)) is reported as ~3 fold.

B4: binds [15].

Molecule B5 has a Kd [16] of 7.1 µM.

B6: binds [17]; binds [18].
